Assay: soluble fraction after stress (log2 fold change); higher = more stays soluble; pooled small domains, quantitative proteomics
Details: stress: pH 4
Outline: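 How much of each domain stays soluble after acid stress, expressed as a fold change, is used to gauge aggregation propensity. Pooled custom libraries of small domains underwent pH 4 stress before high-throughput quantitative proteomics. A higher log2 value means more of the domain stayed soluble.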

| Sequence | soluble fraction (log2) |
| --- | --- |
| HMESYDSEIKEVLDLAGKGRWEEAQTKADALREMAPNNSLVERLHGWVLQAAHQRREQALENDIRE | 0.101 |
| HMETADREILLREIREIINERVDYNKDITDDEMKELVMNTVFERSRQQYMSIQDKQEIIQAIFNSMR | -1.02 |
| HMLPAGSDAILRYLSSGAVKGIGVATAARIVEKFGDETLRILEEEPGRLAEIKGITAAKAKAIGEAFAGQ | -0.143 |
| HMNNDFVERLRKLFGHASMAEIARRIDVPHATIRNYFQGRLPAPEVLIKLARETGVSLNWLLTGEGKMFA | -0.113 |
| HMLDLSDFEVVRDLYLSEQIWNVGDLIIARSKKDDTYKAWEIIRKGTNYVTGIDESHKVEKIWLHDILI | -1.1 |
| HMGIRAFDPEAFDERLKEFFSMIAPYKKLDTRSLQPHFPHHAKEVAERIRQLAEAGKIKVDGFYISEL | -0.0943 |
| HMDVPNLVGKTLEEAENELKKLNIRYNVTERADEAPKDTVIEQSPKPYEAMEPGTVVNLVISSGPA | -0.912 |
| HMGDPSSERNIQKSIFILIGEKALSVQDISRSLGMPNDIIDKALISGVERNLWLSSDKGEYYL | -1.04 |
| HMTSVFQNSDGTWGHLTKTVNPLIYTIEYGRRTGFSSREEAEESYQRSLTSYQDQLSKLKKERD | 0.223 |
| HMKINVQETEVYRYLLERADRLYSMILGEERENLMERTRFFEKEVAKASLPHLPKLYDEFSIYLDRLERG | -0.555 |
| HMSNLKKRRLEKNLTLDDVGKLVGVSAATISRWESGDIENMRSDKIVKLANALEISPAVILGW | -0.641 |
| HMVTDVDYSTFLSQVEEGKVESVTIEDGEILFKGKDENGEARWYITGEMNDPNLVERLKDKVPSFNAPA | -0.128 |
| HMDTIVVAARSIQARQTLTESDLRVEEQEIGAASDKYYTDIAEAVGLVSSRRLSPGQPILRTM | -0.273 |
| HMDLHERISSVLLGTGKSNDELAQILGVNKNTISAYKNKHGDLKGIVLEGIVKHFDINPVWLLTGSGTR | 0.0745 |
| HMGTPSAEELAFSAQKGNAVMRIMEIREKYIENGGQISDEERNEIERLIAIYYPKASIFDYLPMMG | -1.42 |
| HMQRFIHITVSDVHQATRLLEEEMQLTNYSVAENNAIKIFEFTYEPQEINHLFGKNGIEVSSLFIGS | -0.345 |
| HMQAGILTDTAAKNARIKKIDTERLEAELDQKRIVIVTGFQGVDRNQNITTLGRGGSDTSAVALAAAVSIT | 0.0198 |
| HMEETLLLRESVRSALAMLAPTLRITLEMYVYRQLSPTEIALRSGVSISMVRRRLGYGLYKLRTQLIDA | -0.394 |
| HMDLKSLEFAIVENVQRHDLNPLEEAQGYKRLIDEFSYDQDKVSKFIGKSRSYITNSLRLLNLPLEVLEF | -0.541 |
| HMSTKLLEVNIFDDSKWVNKTIMDSDIPEDILIVMIKRGDEVIVPKGSTIINKGDILVLSANNFDNLLN | -1.97 |
| HMTPNRDDEHLQSLRDYYASNRRIPSLQRIAALLGFSSRSAAVKLMGRLADEGFVERTVDDDAWIPGSRFF | -0.194 |
| HMSVPVDEVLAALTQKLTDLRTQAMAAKDFSAVDALKAALTEAGVEVRMSKTGVELIAGPRVDAKKLGTL | -0.268 |
| HMTKSSAYLSAEKLINKKQYSDAIVKLNDALVTDSKNADIYNYLGFSHRKLGKMEDAAFFYNKALE | -0.165 |
| HMSDNLTIVRAVYSGLSQRQAAATYHVSRNTVSLLLRHARNRGWLTLEDLAQLDNAAFSKSL | 0.354 |
| HMEKTEQMQVILDYIARYGEINNEKVQEILGVKRTRAYTILKQMVENGFVTTNGRGEEKKYYSIR | -0.33 |
| HMTHFRTDERRREILSTIEADGRVSVSEIASRFDVSPVTIRSDLNYLAIQGKLKRVRGGAVLLDH | 0.275 |

| Sequence | soluble fraction (log2) |
| --- | --- |
| HMRDSYTFEDIEKLKDSYLQDSEKALEKLISIYEDTNQSLAIRTAALDIITDSQDPTFKLALEKIIS | -0.751 |
| HMKFTSEKDISLLELVKAKMGFVSNTKARNVIKIGQIMVSGKVIKIPSTLIKPGTEVELARRV | 0.32 |
| HMNFAERIKELRKEKGITQIDLAEAVGLSKGTVAMWEVDKREANFDTLNKLSDYFQVSIDYLLGRSNDRS | -0.206 |
| HMSDTLPRLLWNFQMAKRLDEMNGAEKRRYQLVLIHPQASEKERDYASSFAHQARMLGIEVAIRDS | -0.139 |
| HMDPLASLTPREREVLSLMAQGLSNLAVAERLVVSAGAVEKHISSIFTKLDLAPSEHEHRRVLAVLRYVAG | -2.09 |
| HMRQIRELFRLKFGSLLPTSDRQIAAQLGVARSTVAEYLERARAAGLSWPLPLDLSDADLEERLFA | ≥ 0.43 |
| HMGSGLAAAEKIRKAHPEIKIVVATSLIDTQVLARAKAVGADSLWYKDGDEGTLMQVVRRTMAGDHIFP | -0.366 |
| HMPDVAIMNVSVEPEKKVVRLQVKAISLEALLDFSTRLEAIPARVELQNHTPSKELSQKWAVNATLIVIY | -0.0366 |
| HMMKLSKRQEQIIAVVKEHQPVSGERISDILAVSRATLRSDLSFLTLSGILKASPKVGYTYES | ≥ 0.43 |
| HMIESLKGILHKKDPTIAIIDVGGVRLSVNITLSTYEKLEEINSSIELLTYFNVREDAMELYG | -0.377 |
| HMLRGKNALMSQLDQIQGIGPKRKRALFNHFLTLDAIKQADVETLRQAPGMNLPAAEQVYRHFHM | 0.144 |
| HMKEEVSVPDIKGMTYEEAEAKLAKYDLEIEKGETVKASEQYEEGQISSQEPEAGSKVKEGSTIVVDVVE | -0.174 |
| HMQTQYIVDTKTTLLVRTGPGKSNSQFGRLKNGETINVYAIKNGWAEISYNGKTGYVSEQYIKLA | 0.327 |
| HMLAAGTSLTVDTESSNLNIRQEPSTEGVILGKAAKGEVVTLVEQSSDEWWKIKTKDGEEGYAYARYLR | 0.0235 |
| HMTLREQISALIKQGKLTQAKLARETGVNGGALSAWINGKYTGNVETVEEPIKHWMALNERK | ≥ 0.43 |
| HMGQAELPYSEFLREVNNGQVKSVIIEGSEITGFYKTSGTSFNVIAPDDPKLVERLMAQGVEVRAQPA | 0.239 |
| HMGLDNEGFERLRQKITRLLSEEALPVKELVDSFASKMRQEVLETLAFLQQEGVIEEKNGKLFLK | -0.283 |
| HMENSYSVEDLALKAAISVDTIRYYQGLGLISPPQKNGRRAIYGNDHISRLEEIKKLAFEGFSLRQISLL | 0.22 |
| HMEEEDELALFLREERKNYDLTLTDVHEKTGIPQKVLKEFQWGDAQLTDRQRYTLTQYVEEAREYFQENA | -0.998 |
| HMDSVEMFSPILGMNANMDLDTLTQTRDKLLEKYKDDEQLIGLVNKTYDYFNEILLKQFLIEELEKNE | -0.207 |
| HMTIGKRIKRRRIELKMSIDSLARTIGKDRSTVYRYESGAIDKVSSDVLAKLATALNTTPAYLIGL | 0.22 |
| HMDQPLIEPLSERELEVLSLIAAGYSNAEIAERLVIAVGTVKRHINNLYGKLGAGSRTQALAIAREIGLM | -0.661 |
| HMISLPSYIREEATEVYNRLHDLGLEYTSLDVNDDSIPKGYVVRTVPEAGASVPAGQVVTVYVSLG | -0.231 |
| HMNMFDMRKTGARISQLRRAAGLTQAELAEKLGISYQAVSSWERGSNMPDIGKLLDLARILNTTVDALLSA | 0.309 |
| HMSNMESLIGREATVIEMIPAEDVGRVKIDGDEWQAVLAREDDNEPRRDIQVGEKVIIVSYDSIILTVKTK | -1.02 |
| HMSRLMIVTPDGRIMDDVPEFGEVRTTTDVNGRVLVLDRNNVVIGFEMTPREYRREFGRNPF | 0.0337 |

| Sequence | soluble fraction (log2) |
| --- | --- |
| HMLVIMKTGASEEEIGRVIERIEGEGLSAHVSRGTERTVIGVIGQGVDVHRIAGVLGGMSGVESLVPIS | 0.0269 |
| HMSATVLVHVLGEVRKPGVVSLPEGSRVQDAITAAGGLTSRAKPGDLNLAARVSDGAQLVIGRSGSQVRTT | 0.103 |
| HMNKNQGVTTTNLNFRKSASTSSLVLYTIPKNTTLDILDKLPSGWYKVKYKGLTGYVSGSYV | 0.22 |
| HMEEAQWEFKWENTDSAEIHGPHSSSEMLKWQENSFFAKGVYVRKVGGDTTDFTDGKRIDFDLY | -1.69 |
| HMGSSLLSPKEREVLQLLAGNLSNKQIALAMGVSDETIKWHLRNLFGKLNAGGRKHLIDRARMLGLLAAA | -0.153 |
| HMGGPAGPDFTYTGDDLTRIDYDDGSYKVFTYDAGKLSQIDFTSGGTTTRKTFVYSGDTLIRVDQTI | -1.43 |
| HMAPLQDENGDLTFSYNGKTYTVNVNSEEDRNSFAEDFNKENGKKFSWFKERAGLQHYVFYDTEM | -0.918 |
| HMFTLNEIIGQKIRNARISAGLTLDELSKMTGISAAQLSSLETGYRRANIDTLYAIAKAIGIDVSNLLKY | -0.626 |
| HMLDKKKHLEQGRKIIEDQLAKYKIQPSFDTLKKLSAYYGLNNKEQLYAQVGMGFLELENLDEILQ | -0.347 |
| HMKMPNGYGSITKLSGKRRKPWRVRKTAGWELDAKTQKLKQTYINIGYYETRADAMSALVSYNEDP | -0.151 |
| HMPGRPSRISDAVKDQIDHDLRKNPRDLGYSQNLWDGKLLSHHLKERYQITLGIRQAQRLFHQLGFRQR | -0.0409 |
| HMNYKDQISRYFQQAFHIYPKYQTMKNEEGNFTSKIFKDDKMIIEGVGKSKKKAEQDVSRKALIHFNVL | 0.398 |
| HMSIQREIILEVIKNNRTHPTAEEIYILVTKKEPKISRSTVYRNINILVEKGIIEKITIATGPDRYDY | -0.126 |
| HMQLTVAVLIKNISKGQVISQGFLGFEARPERQIRGAYTNISEVLGRKAKSNIAVGTILKARHLDT | -0.49 |
| HMTTIAQNISNYRTRANMTQQQVADKLSVSHHTVSKWELGINTPSVEDMQKLAQVFGVTITELVVD | -0.662 |
| HMGQYSTTLDKIENSLFGFTYSNEAENTRINRIENKVYGKTSTSQTSTRIAKLKKDLSVDEMG | -0.00491 |
| HMTMIIQLDKNITQEQRQFLVEELNRLSISPNFVSTQFTNYIVGIPKKEFDIRLIGNLPGIADIHFV | -0.269 |
| HMQWGKVRRLPSGRYQASYVHKGTRYTAPETYTVQGRAHGWIESERRLIVTDTWTPPDTRPS | -0.202 |
| HMNLGNLAYESKVTKQVLNMIRPLHPEYSSDDITRAVKEILSEEGSRQRRVDEIARGALDVLMGNPR | ≥ 0.43 |
| HMLVVEPSAELKTIIDKTASFVARNGPEFEARIKNEQNNAKFSFLQPNDPFNPYYRAKIVELGGTV | -0.174 |
| HMDERLAKLTPQERKILDLIAEGATNRQIGTELHLAEKTVKNYVSNMLMKLGMSRRTEAAVFAVKASIN | ≥ 0.43 |
| HMATSNGEFVIPDGGLQFEELERSLLMQALKKSGGSQTGAARLLGLSRDTLRYRLEKFGIDAAAVRE | -0.149 |
| HMNLSSETLSEMEARIGQMGVVELQDRRAYLLQEQEGTQNPSRLKEIADELSAIQKALVALV | -0.401 |
| HMFDGTLSIYPNPSKGIFNLDLLNVKDGEYTITVDNLLGQEVYSEIRNVINSSSKTLDLSNLTKGV | -0.433 |
